Measurements taken from paper PMC11012335, “Hfq-Antisense RNA I Binding Regulates RNase E-Dependent RNA Stability and ColE1 Plasmid Copy Number”.

Target: Hfq WT (Escherichia coli K-12 MG1655, UniProt P0A6X3 1-102)
Experiment: EMSA; EMSA: 20 mM Tris-HCl pH 7.6, 0.5 M NaCl, 1 mM EDTA, 1% glycerol, 20 min at 25 C; native PAGE in 0.5x TBE at 4 C
Details: protein: recombinant; tags: His tag removed with AcTEV protease; label: 3' fluorescein; single-stranded

Binder: GGGACAGUAUUUG (ssRNA, 3' fluorescein) [BR13]
- binding result: binds
